Paper PMC4660579

Target: Drosophila melanogaster glutathione transferase epsilon 6 (Drosophila melanogaster)
Assay: crystal structure; DmGSTE6 at 15-20 mg/ml with 10 mM GSH, 20% PEG3350, 0.2 M sodium thiocyanate, sitting drop vapour diffusion at 288 K; 1.72 Å; homodimer

- stoichiometry N: 2
Substance: Drosophila melanogaster glutathione transferase epsilon 6 (enzyme)
